Test results taken from US20210403582A1 (JACOBIO PHARMACEUTICALS, published 2021).
Read-outs that look alike come from different tables or passages of the source.

T1: human OSM (human, UniProt P13725 26-221, limits assumed)
T1 sequence (looked up): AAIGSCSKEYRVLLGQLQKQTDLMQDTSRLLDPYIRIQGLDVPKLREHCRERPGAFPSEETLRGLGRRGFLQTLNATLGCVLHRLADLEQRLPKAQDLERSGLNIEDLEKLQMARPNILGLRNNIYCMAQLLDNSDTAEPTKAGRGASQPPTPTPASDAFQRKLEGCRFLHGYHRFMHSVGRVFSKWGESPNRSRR

T2: human CNTF (human, UniProt P26441 1-200, limits assumed)
T2 sequence (looked up): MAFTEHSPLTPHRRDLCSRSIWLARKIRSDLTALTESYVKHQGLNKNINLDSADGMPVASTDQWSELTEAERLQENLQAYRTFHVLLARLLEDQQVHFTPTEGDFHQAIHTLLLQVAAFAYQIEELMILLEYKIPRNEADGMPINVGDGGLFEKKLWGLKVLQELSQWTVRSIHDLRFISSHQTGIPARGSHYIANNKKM

B1: 5D8 antibody (positive control) (antibody, human IgG1, kappa, V domains shown)
VH: QVQLQESGGGLVKPGGSLRLSCAASGFTFSHAWMHWVRQAPGKGLEWVGQIKAKSDDYATYYAESVKGRFTISRDDSKNTLYLQMNSLKTEDTAVYYCTCWEWDLDFWGQGTMVTVSS
VL: DIVMTQTPLSSPVTLGQPASISCRSSQSLLDSDGHTYLNWLQQRPGQPPRLLIYSVSNLESGVPDRFSGSGAGTDFTLKISRVEAEDVGVYYCMQATHAPPYTFGQGTKLEIKR
B2: P36-033 antibody (antibody, mouse IgG1, kappa, V domains shown)
VH: EVMLVESGGGLVQPGGSRRLSCAASGFTFSSYPMFWVRQTPEKRMEWVAYISNGGDSTYYPDTVKGRFTVSRDNAKNTLYLQMSSLKSVDTAIYYCVRPSARYDEWFAYWGQGTLVTVSA
VL: DIVMTQSHKFMSTSVGDRVSITCKASQDVSNAVAWYQQKPGQSPRLLIYWASFRHTGVPDRFTGSGSGTEYTLTISRVQAEDLALYYCQQHYNTPYTFGGGTRLEIKR
notes: From a phage display library of immunised mice; full-length chains with mouse constant regions; also called P36-033 mAb

Experiments:
[1] = molecular target: T1, human OSM; experiment: ELISA, human OSM coated at 1 µg/mL, A450, bar chart of eight antibody concentrations
Procedure: (§1) The human LIF, human IL-6, human OSM, human CNTF (purchased from Sino biological) were coated on the enzyme label plate at a concentration of 1 μg/mL separately, and the anti-human LIF antibodies 38E10E1C11, P36-033 and 5D8 at different concentrations were added separately and incubated for 1 h at room temperature. Then the plates were washed four times with PBST and incubated with HRP-labeled goat anti-mouse FC secondary antibody for 1 h at room temperature. Then the plates were washed four times with PBST and added with TMB colored solution for color development at room temperature for 10 minutes. The absorption value at 450 nm is quantitated by the enzyme-labeling measuring instrument, and the data was analyzed and plotted using Origin pro 9 software.

[2] = molecular target: T3, recombinant mouse LIF protein (mouse, UniProt P09056 24-203); experiment: ELISA, mouse LIF coated at 1 µg/mL, A450
Procedure: (§2) The recombinant mouse LIF protein (purchased from ACRO Biosystems) was diluted to 1 μg/mL, and was coated on the enzyme label plate, 100 μL of protein was added into every well, and incubated overnight in 4° C. The enzyme label plates were taken out next day, and the liquid was discarded, and were washed with PBST three times and blocked with 2% BSA in PBS for 1 h at room temperature, then washed with PBST three times, and added anti-human LIF antibodies 38E10E1C11, 5D8 and P36-033 at different concentrations and incubated for 1 h at room temperature. The liquid was discarded, and the plates were washed with PBST four times. The plates were added with HRP-labeled goat anti-mouse Fab antibody or goat anti-human FC antibody and incubated for 1 h at room temperature. Then the liquid was discarded, and the plates were washed four times with PBST and incubated with TMB colored solution in 10 minutes at room temperature. Stop color development by adding 2 mol/L H₂SO₄, and the absorption value at 450 nm is quantitated using an automated plate photometer, and the results were shown in FIG. 2.

[3] = molecular target: T2, human CNTF; experiment: ELISA, human CNTF coated at 1 µg/mL, A450, bar chart of eight antibody concentrations
Procedure: as §1

[4] = molecular target: T3, recombinant mouse LIF protein; experiment: ELISA, mouse LIF coated at 1 µg/mL, A450; remark: listed apart in the source
Procedure: as §2

[5] = molecular target: T4, human LIF protein (human, UniProt P15018 23-202); experiment: ELISA, human LIF coated at 1 µg/mL, A450
T4 construct: Bought recombinant protein (Sino Biological / Yiqiao Shenzhou 14890-HNAH) in most assays; also called recombinant human LIF protein; rhLIF
Procedure: as §2, with “recombinant human” for “recombinant mouse”, “protein” for “protein (purchased from ACRO Biosystems)”, “μg/mL,” for “μg/mL, and”, “of the” for “of”, “FIG. 1.” for “FIG. 2.”

[6] = molecular target: T4, human LIF protein; experiment: ELISA, human LIF coated at 1 µg/mL, A450; remark: listed apart in the source
Procedure: as §2, with “recombinant human” for “recombinant mouse”, “protein” for “protein (purchased from ACRO Biosystems)”, “μg/mL,” for “μg/mL, and”, “of the” for “of”, “FIG. 1.” for “FIG. 2.”

[7] = molecular target: human IL-6 (human, UniProt P05231 30-212, limits assumed); experiment: ELISA, human IL-6 coated at 1 µg/mL, A450
Procedure: as §1

[8] = molecular target: T1, human OSM; experiment: ELISA, human OSM coated at 1 µg/mL, A450
Procedure: as §1

[9] = molecular target: T2, human CNTF; experiment: ELISA, human CNTF coated at 1 µg/mL, A450
Procedure: as §1

[10] = molecular target: T4, human LIF protein; experiment: competition ELISA: human LIF coated at 1 µg/mL, GP130-Fc 12 µg/mL added together with the antibody, HRP anti-human Fc, A450
[11] = molecular target: T4, human LIF protein; experiment: competition ELISA: human LIF coated at 1 µg/mL, GP130-Fc 20 µg/mL added together with the antibody, A450
Procedure: The recombinant human LIF protein was coated on the enzyme label plates at a concentration of 1 μg/mL, GP130 protein (expressed fusedly with human FC) at a concentration of 20 μg/mL was added (50 μL/well), and the anti-human LIF antibodies P36-033 and 38E10E1C11 at different concentrations simultaneously were added separately (50 μL/well), and incubated for 2 h at room temperature. At the same time, the control wells added with antibodies and without GP130 protein were set. Incubated for 2 h at room temperature. After washed four times with PBST, incubated with HRP-labeled goat anti-mouse FC secondary antibody for 1 h at room temperature. Then the plates were washed four times with PBST and added with TMB coloured solution in for 10 minutes. The absorption value at 450 nm is quantitated using an enzyme-labelling measuring instrument, and the data was analyzed and plotted using Origin pro 9 software.

T4 sequence (P15018 23-202 limits assumed): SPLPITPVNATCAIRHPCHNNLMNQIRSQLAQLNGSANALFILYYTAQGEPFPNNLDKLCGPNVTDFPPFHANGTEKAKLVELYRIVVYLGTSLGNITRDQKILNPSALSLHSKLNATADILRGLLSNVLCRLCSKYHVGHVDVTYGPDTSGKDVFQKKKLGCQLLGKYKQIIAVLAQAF
human IL-6, sequence (P05231 30-212 limits assumed): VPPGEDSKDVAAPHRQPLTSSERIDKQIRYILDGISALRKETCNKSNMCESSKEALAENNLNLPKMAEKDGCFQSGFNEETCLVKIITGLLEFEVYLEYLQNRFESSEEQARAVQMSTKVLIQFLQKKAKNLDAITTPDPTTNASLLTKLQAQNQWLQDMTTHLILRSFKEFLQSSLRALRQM

| Binder | binding result [1] | EC50 (read off the curve) [2] [µg/mL] | binding result [3] | EC50 (read off the curve) [4] [µg/mL] | EC50 (read off the curve) [5] [µg/mL] | EC50 (read off the curve) [6] [µg/mL] | binding result [7] | binding result [2] | binding result [8] | binding result [9] | IC50 (read off the curve) [10] [µg/mL] | IC50 (read off the curve) [11] [µg/mL] |
| --- | --- | --- | --- | --- | --- | --- | --- | --- | --- | --- | --- | --- |
| B1 | binds | ~0.4 | binds | ~0.3 | ~0.2 | ~0.8 | – | – | – | – | – | – |
| B2 | – | – | – | – | – | ~0.05 | no binding (tested: 25 ug/ml) | binds | no binding (tested: 25 ug/ml) | no binding (tested: 25 ug/ml) | ~0.1 | ~0.1 |
